The results in this text go back to publication PMC3105389.

Where two headings read alike, the source gives them in different places.

As usually defined, the Kd is a measure of binding affinity in units of concentration. Higher therefore signals a looser complex.

Data set [1] addresses T1, MobMN199 (MobM relaxase domain) (Streptococcus plasmid pMV158 (plasmid …, UniProt P13925 1-199)).
T1 sequence: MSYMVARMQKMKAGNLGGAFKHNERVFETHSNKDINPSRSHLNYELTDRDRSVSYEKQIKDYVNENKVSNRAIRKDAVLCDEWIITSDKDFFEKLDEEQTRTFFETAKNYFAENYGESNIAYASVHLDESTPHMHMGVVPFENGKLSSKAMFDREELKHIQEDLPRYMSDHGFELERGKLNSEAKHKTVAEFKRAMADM
Put plainly: competition.

Data set [2] concerns the target T1, MobMN199 (MobM relaxase domain). As to the kind of experiment: competition. The source holds these as a separate data set.
The target is the same in data set [3]. As to the kind of experiment: EMSA. In general terms: In EMSA bound probe runs differently from free probe, usually more slowly.
Data set [4] has the same target. As to the kind of experiment: competition. This is another data set of the same source.

On to GAATATAAAGT (ssDNA) [IR1-R 11-mer], for which the binding result in data set [1] is “no binding”. In the case of ACTTTATGAATATAAAGT (ssDNA) [IR1 18-mer], the binding result in data set [2] is recorded as “no binding”. As for GTATAGTGTG (ssDNA) [10-NIC 10-mer], the binding result in data set [2] is “no binding”.

Take GCACACACTTTATGAATATAAAGTATAGTGTG (ssDNA) [IR3 32-mer]: the Kd in data set [3] came to 60 ± 7 nM.

GCACACACTTTATGA (ssDNA) [IR3-L 15-mer]: in data set [1], the binding result is on record as “no binding”. In data set [3], GCACACACTTTATGAATATAAAGTATAGTGTGTTATACTTTA (ssDNA) [ORIT 42-mer] displayed a Kd of 58 ± 6 nM. For TAAAGTATAGTGTGTTATACTTTA (ssDNA) [IR2 24-mer], the binding result in data set [1] is given as “no binding”.

For the molecule ACTTTATGAATATAAAGTATAGTGTG (ssDNA) [IR1+8 26-mer], the binding result in data set [4] was “binds”.
